According to paper PMC11949838, “FUT10 and FUT11 are protein O-fucosyltransferases that modify protein EMI domains” (Nature Chemical Biology, 2025):

B1: Multimerin-1 (MMRN1): FX KO (protein)
parent chain: MKGARLFVLLSSLWSGGIGLNNSKHSWTIPEDGNSQKTMPSASVPPNKIQSLQILPTTRVMSAEIATTPEARTSEDSLLKSTLPPSETSAPAEGVRNQTLTSTEKAEGVVKLQNLTLPTNASIKFNPGAESVVLSNSTLKFLQSFARKSNEQATSLNTVGGTGGIGGVGGTGGVGNRAPRETYLSRGDSSSSQRTDYQKSNFETTRGKNWCAYVHTRLSPTVILDNQVTYVPGGKGPCGWTGGSCPQRSQKISNPVYRMQHKIVTSLDWRCCPGYSGPKCQLRAQEQQSLIHTNQAESHTAVGRGVAEQQQQQGCGDPEVMQKMTDQVNYQAMKLTLLQKKIDNISLTVNDVRNTYSSLEGKVSEDKSREFQSLLKGLKSKSINVLIRDIVREQFKIFQNDMQETVAQLFKTVSSLSEDLESTRQIIQKVNESVVSIAAQQKFVLVQENRPTLTDIVELRNHIVNVRQEMTLTCEKPIKELEVKQTHLEGALEQEHSRSILYYESLNKTLSKLKEVHEQLLSTEQVSDQKNAPAAESVSNNVTEYMSTLHENIKKQSLMMLQMFEDLHIQESKINNLTVSLEMEKESLRGECEDMLSKCRNDFKFQLKDTEENLHVLNQTLAEVLFPMDNKMDKMSEQLNDLTYDMEILQPLLEQGASLRQTMTYEQPKEAIVIRKKIENLTSAVNSLNFIIKELTKRHNLLRNEVQGRDDALERRINEYALEMEDGLNKTMTIINNAIDFIQDNYALKETLSTIKDNSEIHHKCTSDMETILTFIPQFHRLNDSIQTLVNDNQRYNFVLQVAKTLAGIPRDEKLNQSNFQKMYQMFNETTSQVRKYQQNMSHLEEKLLLTTKISKNFETRLQDIESKVTQTLIPYYISVKKGSVVTNERDQALQLQVLNSRFKALEAKSIHLSINFFSLNKTLHEVLTMCHNASTSVSELNATIPKWIKHSLPDIQLLQKGLTEFVEPIIQIKTQAALSNLTCCIDRSLPGSLANVVKSQKQVKSLPKKINALKKPTVNLTTVLIGRTQRNTDNIIYPEEYSSCSRHPCQNGGTCINGRTSFTCACRHPFTGDNCTIKLVEENALAPDFSKGSYRYAPMVAFFASHTYGMTIPGPILFNNLDVNYGASYTPRTGKFRIPYLGVYVFKYTIESFSAHISGFLVVDGIDKLAFESENINSEIHCDRVLTGDALLELNYGQEVWLRLAKGTIPAKFPPVTTFSGYLLYRT
B2: Multimerin-1 (MMRN1): T216A/T265A (protein)
parent chain: B1 parent chain
B3: Multimerin-1 (MMRN1): T1055A (protein)
parent chain: B1 parent chain
B4: Multimerin-1 (MMRN1): T265A (protein)
parent chain: B1 parent chain
B5: Multimerin-1 (MMRN1): T216A (protein)
parent chain: B1 parent chain
B6: Multimerin-1 (MMRN1): FUT10/11 DKO (protein)
parent chain: B1 parent chain
B7: GFP–FUT11 (POFUT4) (Homo sapiens) (protein)
chain: AGGEAEWAEPWDGAVFRPPSALGAVGVTRSSGTPRPGREEAGDLPVLLWWSPGLFPHFPGDSERIECARGACVASRNRRALRDSRTRALLFYGTDFRASAAPLPRLAHQSWALLHEESPLNNFLLSHGPGIRLFNLTSTFSRHSDYPLSLQWLPGTAYLRRPVPPPMERAEWRRRGYAPLLYLQSHCDVPADRDRYVRELMRHIPVDSYGKCLQNRELPTARLQDTATATTEDPELLAFLSRYKFHLALENAICNDYMTEKLWRPMHLGAVPVYRGSPSVRDWMPNNHSVILIDDFESPQKLAEFIDFLDKNDEEYMKYLAYKQPGGITNQFLLDSLKHREWGVNDPLLPNYLNGFECFVCDYELARLDAEKAHAASPGDSPVFEPHIAQPSHMDCPVPTPGFGNVEEIPENDSWKEMWLQDYWQGLDQGEALTAMIHNNETEQTKFWDYLHEIFMKRQHL

Columns and labels:
GFP–FUT8 = molecular target: T1, GFP–FUT8 (Homo sapiens, UniProt Q9BYC5); test: nano LC-MS/MS of N-glycan fucosylation on EMI; type: biochemical; conditions: donor; 100 μM with 0.5 μM non-fucosylated MMRN1 N-terminal EMI, 50 mM HEPES pH 7, 37 °C, 30 min; positive control
T1 sequence (Q9BYC5 31-575 limits assumed): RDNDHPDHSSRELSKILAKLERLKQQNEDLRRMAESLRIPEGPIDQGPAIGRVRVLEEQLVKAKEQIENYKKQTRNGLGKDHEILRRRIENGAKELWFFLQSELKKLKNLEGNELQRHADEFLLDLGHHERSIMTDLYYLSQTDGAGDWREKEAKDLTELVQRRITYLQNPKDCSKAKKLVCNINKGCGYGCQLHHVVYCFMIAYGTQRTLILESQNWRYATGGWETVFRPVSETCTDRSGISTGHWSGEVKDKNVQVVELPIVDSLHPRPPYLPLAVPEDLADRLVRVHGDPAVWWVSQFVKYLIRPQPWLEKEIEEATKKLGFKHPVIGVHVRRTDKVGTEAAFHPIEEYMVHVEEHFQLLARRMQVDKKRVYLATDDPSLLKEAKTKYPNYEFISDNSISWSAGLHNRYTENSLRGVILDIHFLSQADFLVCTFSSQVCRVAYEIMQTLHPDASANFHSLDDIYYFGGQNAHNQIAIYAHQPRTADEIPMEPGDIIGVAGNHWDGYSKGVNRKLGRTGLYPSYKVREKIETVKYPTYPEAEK

GFP–FUT10 (POFUT3) = molecular target: T2, GFP–FUT10 (POFUT3) (Homo sapiens, UniProt Q6P4F1); test: nano LC-MS/MS of O-fucosylated EMI peptides; type: biochemical; conditions: donor; 100 μM with 0.5 μM non-fucosylated MMRN1 N-terminal EMI, 50 mM HEPES pH 7, 37 °C
T2 sequence (Q6P4F1 34-479 limits assumed): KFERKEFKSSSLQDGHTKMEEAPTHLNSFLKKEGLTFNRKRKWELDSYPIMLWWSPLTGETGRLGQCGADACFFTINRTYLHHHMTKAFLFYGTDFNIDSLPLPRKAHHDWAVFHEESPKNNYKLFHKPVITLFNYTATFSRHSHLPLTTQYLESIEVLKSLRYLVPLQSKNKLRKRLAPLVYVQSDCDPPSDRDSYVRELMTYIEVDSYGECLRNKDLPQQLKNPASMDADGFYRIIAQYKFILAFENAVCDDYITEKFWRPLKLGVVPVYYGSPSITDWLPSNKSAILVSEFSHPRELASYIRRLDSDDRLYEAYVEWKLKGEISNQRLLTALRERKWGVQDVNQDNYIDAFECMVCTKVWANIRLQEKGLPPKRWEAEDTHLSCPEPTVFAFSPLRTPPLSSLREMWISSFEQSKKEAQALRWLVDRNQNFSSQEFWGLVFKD

[1] = molecular target: human MMRN1 N-terminal EMI-Myc-His6 (first 290 amino acids of Multimerin-1, wild type) (human) (UniProt Q13201)
[2] = anti-Myc western blot of medium, normalised to IgG
[3] = western blot of cell lysates; conditions: glycan lost; control: wild type full-length MMRN1
[4] = substrate: C[C@@H]1O[C@H](OP(=O)(O)OP(=O)(O)OC[C@H]2O[C@@H](n3cnc4c(=O)[nH]c(N)nc43)[C@H](O)[C@@H]2O)[C@@H](O)[C@H](O)[C@@H]1O; test: nano LC-MS/MS glycopeptide quantification, Michaelis-Menten fit; type: biochemical, Homo sapiens; conditions: donor, 20 μM non-fucosylated MMRN1 N-terminal EMI, 0.3 mM MnCl2, 50 mM HEPES pH 7, 37 °C, 15 min, same value for T216 and T265 sites
[5] = glycan lost, control: wild type full-length MMRN1

Row | Molecule | expression_or_secretion, other: % reduction vs WT [2, 5] | expression_or_secretion [3] | also measured
1 | C[C@@H]1O[C@H](OP(=O)(O)OP(=O)(O)OC[C@H]2O[C@@H](n3cnc4c(=O)[nH]c(N)nc43)[C@H](O)[C@@H]2O)[C@@H](O)[C@H](O)[C@@H]1O [GDP-fucose] | – | – | nano LC-MS/MS of N-glycan fucosylation on EMI (GFP–FUT8): GFP–FUT8 was used as a positive control, and it robustly added fucose to N-glycans; nano LC-MS/MS of O-fucosylated EMI peptides (GFP–FUT10 (POFUT3)): Both GFP–FUT10 and GFP–FUT11 can independently add fucose to EMI substrates
2 | GFP–FUT11 (human FUT11 lacking the transmembrane domain, from pGEn2-GFP-hFUT11) (from UniProt Q495W5 1-492) (enzyme) | – | – | Km for non-fucosylated N-terminal EMI at the T216 site; O-fucosylation kinetics by LC-MS/MS, Michaelis–Menten fit, 50 nM enzyme, 100 μM GDP-fucose, 0.3 mM MnCl2, 37 °C, 15 min [1]: 6.74 µM
3 | B1 | – | – | expression_or_secretion, other: % reduction vs WT ([2]; glycan lost, control: N-terminal EMI in WT HEK293T cells): decreases
4 | B2 | decreases | no change | –
5 | B3 | abolishes | no change | –
6 | B4 | no change | no change | –
7 | B5 | decreases | no change | –
8 | B6 | – | – | expression_or_secretion, other: % reduction vs WT ([2]; glycan changed form, control: N-terminal EMI in WT HEK293T cells): decreases
9 | B7 | – | – | Km [4]: 5 µM
